From patent publication US20050064507

What was measured:
[1] = target: T1, AKAP12 peptide AGWRKKTSFRKPKED (SEQ ID NO:99) (not fully specified)
T1 chain: AGWRKKTSFRKPKED

[2] = target: T2, pkc-zeta peptide GLPAPGEDKSIYRRGSRRWR (SEQ ID NO:167) (not fully specified)
T2 chain: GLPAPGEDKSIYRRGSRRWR

[3] = target: T3, PRKCA peptide RFARKGSLRQKNV (SEQ ID NO:85) (not fully specified)
T3 chain: RFARKGSLRQKNV

[4] = target: T4, HERG peptide TELEGGFSRQRKRKLSFRRR (SEQ ID NO:140) (not fully specified)
T4 chain: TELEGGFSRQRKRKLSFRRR

[5] = target: T5, ubiquitin specific protease 8 peptide RARRDSLKKIEIW (SEQ ID NO:136) (not fully specified)
T5 chain: RARRDSLKKIEIW

[6] = target: T6, MARCKS peptide PSPSNETPKKKKKRFSFKKS (SEQ ID NO:157) (not fully specified)
T6 chain: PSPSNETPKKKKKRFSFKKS

[7] = target: T7, calcium channel, voltage-dependent, L type, alpha peptide RDIRQSPKRGFLRSASLGRR (SEQ ID NO:147) (not fully specified)
T7 chain: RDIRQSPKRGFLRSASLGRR

[8] = target: T8, beta adducin peptide KKKFRTPSFLKKSKK (SEQ ID NO:135) (not fully specified)
T8 chain: KKKFRTPSFLKKSKK

[9] = target: T9, ERN1 peptide ISDFGLAKKLAVGRHSFSRR (SEQ ID NO:145) (not fully specified)
T9 chain: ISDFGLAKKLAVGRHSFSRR

[10] = target: T10, DGKI peptide NRKKKRTSFKRKA (SEQ ID NO:79) (not fully specified)
T10 chain: NRKKKRTSFKRKA

[11] = target: T11, p164-RhoGEF peptide PRLIRRGSKKRPAR (SEQ ID NO:124) (not fully specified)
T11 chain: PRLIRRGSKKRPAR

[12] = target: T12, NF1 peptide SQVQKQRSAGSFKRNSIKKI (SEQ ID NO:127) (not fully specified)
T12 chain: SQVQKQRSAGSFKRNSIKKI

[13] = target: T13, p164-RhoGEF peptide PRLIRRGSKKRPAR (SEQ ID NO:82) (not fully specified)
T13 chain: PRLIRRGSKKRPAR

[14] = target: T14, SYTL4 peptide RQGKRKTSIKRDTVNPL (SEQ ID NO:87) (not fully specified)
T14 chain: RQGKRKTSIKRDTVNPL

[15] = target: T15, NF1 peptide AGSFKRNSIKKIV (SEQ ID NO:102) (not fully specified)
T15 chain: AGSFKRNSIKKIV

[16] = target: T16, GABA A receptor beta 2 peptide ERHVAQKKSRLRRRASQLKI (SEQ ID NO:142) (not fully specified)
T16 chain: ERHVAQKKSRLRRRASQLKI

[17] = target: T17, GABRB2 peptide QKKSRLRRRASQLKI (SEQ ID NO:84) (not fully specified)
T17 chain: QKKSRLRRRASQLKI

[18] = target: T18, p47phox peptide QAQRQIKRGAPPRRSSIRNA (SEQ ID NO:146) (not fully specified)
T18 chain: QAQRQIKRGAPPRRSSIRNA

[19] = target: T19, ASIP peptide KKRSSKKEASMKKVVRP (SEQ ID NO:97) (not fully specified)
T19 chain: KKRSSKKEASMKKVVRP

[20] = target: T20, M1 muscarinic receptor peptide RWDKRRWRKIPKRPGSVHRT (SEQ ID NO:155) (not fully specified)
T20 chain: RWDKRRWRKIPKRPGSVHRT

[21] = target: T21, NMDAR1 peptide RAITSTLASSFKRRR (SEQ ID NO:122) (not fully specified)
T21 chain: RAITSTLASSFKRRR

[22] = target: T22, PARIS1 peptide RELEQLKAEYLERRASRRRA (SEQ ID NO:148) (not fully specified)
T22 chain: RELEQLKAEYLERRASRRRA

[23] = target: T23, PLEC1 peptide KRERKTSSKSSVRKRR (SEQ ID NO:81) (not fully specified)
T23 chain: KRERKTSSKSSVRKRR

[24] = target: T24, dag kinase zeta peptide RPQNTLKASKKKKRASFKRK (SEQ ID NO:118) (not fully specified)
T24 chain: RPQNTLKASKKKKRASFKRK

[25] = target: T25, ANK1 peptide AQIVKRASLKRGKQ (SEQ ID NO:90) (not fully specified)
T25 chain: AQIVKRASLKRGKQ

[26] = target: T26, MARCKS peptide KKRFSFKKSFKLSGFSFKKN (SEQ ID NO:119) (not fully specified)
T26 chain: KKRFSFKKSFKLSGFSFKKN

[27] = target: T27, NIK peptide TEGKMARVAWKGKRRSKARK (SEQ ID NO:164) (not fully specified)
T27 chain: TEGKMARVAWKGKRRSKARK

[28] = target: T28, MCM2 peptide VQRHRSMRKTFARYLSFRRD (SEQ ID NO:129) (not fully specified)
T28 chain: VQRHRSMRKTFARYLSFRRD

[29] = target: T29, dag kinase iota peptide PQNSLKASNRKKKRTSFKRK (SEQ ID NO:151) (not fully specified)
T29 chain: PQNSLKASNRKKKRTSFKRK

B1: PKC-epsilon (protein)
chain: MVVFNGLLKIKICEAVSLKPTAWSLRHAVGPRPQTFLLDPYIALNVDDSRIGQTATKQKTNSPAWHDEFVTDVCNGRKIELAVFHDAPIGYDDFVANCTIQFEELLQNGSRHFEDWIDLEPEGRVYVIIDLSGSSGEAPKDNEERVFRERMRPRKRQGAVRRRVHQVNGHKFMATYLRQPTYCSHCRDFIWGVIGKQGYQCQVCTCVVHKRCHELIITKCAGLKKQETPDQVGSQRFSVNMPHKFGIHNYKVPTFCDHCGSLLWGLLRQGLQCKVCKMNVHRRCETNVAPNCGVDARGIAKVLADLGVTPDKITNSGQRRKKLIAGAESPQPASGSSPSEEDRSKSAPTSPCDQEIKELENNIRKALSFDNRGEEHRAASSPDGQLMSPGENGEVRQGQAKRLGLDEFNFIKVLGKGSFGKVMLAELKGKDEVYAVKVLKKDVILQDDDVDCTMTEKRILALARKHPYLTQLYCCFQTKDRLFFVMEYVNGGDLMFQIQRSRKFDEPRSRFYAAEVTSALMFLHQHGVIYRDLKLDNILLDAEGHCKLADFGMCKEGILNGVTTTTFCGTPDYIAPEILQELEYGPSVDWWALGVLMYEMMAGQPPFEADNEDDLFESILHDDVLYPVWLSKEAVSILKAFMTKNPHKRLGCVASQNGEDAIKQHPFFKEIDWVLLEQKKIKPPFKPRIKTKRDVNNFDQDFTREEPVLTLVDEAIVKQINQEEFKGFSYFGEDLMP
B1 was tested, and the in vitro phosphorylation (% of best substrate) [1] was 27, the in vitro phosphorylation, 1 uM peptide (% of best substrate) [2] was 6 and the in vitro phosphorylation (% of best substrate) [3] was 86. It also gave an in vitro phosphorylation, 1 uM peptide (% of best substrate) [4] of 27, an in vitro phosphorylation, 1 uM peptide (% of best substrate) [5] of 33 and an in vitro phosphorylation, 1 uM peptide (% of best substrate) [6] of 12. It also gave an in vitro phosphorylation, 1 uM peptide (% of best substrate) [7] of 26, an in vitro phosphorylation, 1 uM peptide (% of best substrate) [8] of 27 and an in vitro phosphorylation, 1 uM peptide (% of best substrate) [9] of 26. For the same protein, the in vitro phosphorylation (% of best substrate) [10] was 92, the in vitro phosphorylation, 1 uM peptide (% of best substrate) [11] was 49 and the in vitro phosphorylation, 1 uM peptide (% of best substrate) [12] was 32. The in vitro phosphorylation (% of best substrate) [13] was 72, the in vitro phosphorylation (% of best substrate) [14] was 31 and the in vitro phosphorylation (% of best substrate) [15] was 14. The in vitro phosphorylation, 1 uM peptide (% of best substrate) [16] was 28, the in vitro phosphorylation (% of best substrate) [17] was 52 and the in vitro phosphorylation, 1 uM peptide (% of best substrate) [18] was 28. The in vitro phosphorylation (% of best substrate) [19] was 16, the in vitro phosphorylation, 1 uM peptide (% of best substrate) [20] was 26 and the in vitro phosphorylation, 1 uM peptide (% of best substrate) [21] was 72. The in vitro phosphorylation, 1 uM peptide (% of best substrate) [22] was 33, the in vitro phosphorylation (% of best substrate) [23] was 59 and the in vitro phosphorylation, 1 uM peptide (% of best substrate) [24] was 89. It also gave an in vitro phosphorylation (% of best substrate) [25] of 49, an in vitro phosphorylation, 1 uM peptide (% of best substrate) [26] of 81 and an in vitro phosphorylation, 1 uM peptide (% of best substrate) [27] of 12. It also gave an in vitro phosphorylation, 1 uM peptide (% of best substrate) [28] of 65 and an in vitro phosphorylation, 1 uM peptide (% of best substrate) [29] of 24.
